Measurements as given in patent US20230213519A1 (4TEEN4 PHARMACEUTICALS, published 2023).
No end group written: not given here. *: point of attachment. Biotin = O=C1N[C@H]2[C@H](CS[C@H]2CCCCC(=O)*)N1

Experiments:
[1] = target: T1, epitope mapping peptide #5 (human); test: labelled AK1967 on biotinylated peptide #5 captured on avidin plate, chemiluminescence
T1 peptide: Biotin-AFNFDQETVINPETGE
Protocol: (§1) The plates were filled with 200 μl of labelled and diluted detection antibody (tracer) and incubated for 4 h at room temperature. Unbound tracer was removed by washing 4 times with 350 μl washing solution (20 mM PBS, pH 7.4, 0.1% Triton X-100). Well-bound chemiluminescence was measured by using the Centro LB 960 luminometer (Berthold Technologies GmbH & Co. KG).

[2] = target: T2, epitope mapping peptide #11 (human, not fully specified (C-terminus)); test: labelled AK1967 on biotinylated peptide captured on avidin plate, chemiluminescence
T2 peptide: ETGEQIQSWYK(Biotin)
Protocol: as §1

[3] = target: T3, epitope mapping peptide #13 (human, not fully specified (C-terminus)); test: as above
T3 peptide: NPETGEQIQSWYK(Biotin)
Protocol: as §1

[4] = target: T4, epitope mapping peptide #12 (human, not fully specified (C-terminus)); test: as above
T4 peptide: PETGEQIQSWYK(Biotin)
Protocol: as §1

[5] = target: T5, epitope mapping peptide #9 (human); test: as above
T5 peptide: Biotin-AFNFDQETVINP
Protocol: as §1

[6] = target: T6, epitope mapping peptide #7 (human); test: as above
T6 peptide: Biotin-AFNFDQETVINPET
Protocol: as §1

[7] = target: T7, epitope mapping peptide #8 (human); test: as above
T7 peptide: Biotin-AFNFDQETVINPE
Protocol: as §1

[8] = target: T8, epitope mapping peptide #10 (human); test: as above
T8 construct: also called bio-AFNFDQETVIN
T8 peptide: Biotin-AFNFDQETVIN
Protocol: as §1

[9] = target: T9, epitope mapping peptide #1 (human, biotinylated at the N- or C-terminus (which end is in the drawing only)); test: labelled AK1967 on biotinylated peptide #1 captured on avidin plate, chemiluminescence
T9 peptide: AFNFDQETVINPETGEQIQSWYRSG
Protocol: as §1

[10] = target: T10, epitope mapping peptide #4 (human); test: labelled AK1967 on biotinylated peptide #4 captured on avidin plate, chemiluminescence
T10 peptide: Biotin-AFNFDQETVINPETGEQ
Protocol: as §1

[11] = target: T11, epitope mapping peptide #14 (human, not fully specified (C-terminus)); test: labelled AK1967 on biotinylated peptide #14 captured on avidin plate, chemiluminescence
T11 peptide: INPETGEQIQSWYK(Biotin)
Protocol: as §1

[12] = target: T12, epitope mapping peptide #15 (human, not fully specified (C-terminus)); test: labelled AK1967 on biotinylated peptide #15 captured on avidin plate, chemiluminescence
T12 peptide: VINPETGEQIQSWYK(Biotin)
Protocol: as §1

[13] = target: T13, epitope mapping peptide #6 (human); test: labelled AK1967 on biotinylated peptide #6 captured on avidin plate, chemiluminescence
T13 peptide: Biotin-AFNFDQETVINPETG
Protocol: as §1

[14] = target: T14, epitope mapping peptide #16 (human, not fully specified (C-terminus)); test: labelled AK1967 on biotinylated peptide #16 captured on avidin plate, chemiluminescence
T14 peptide: TVINPETGEQIQSWYK(Biotin)
Protocol: as §1

[15] = target: T15, epitope mapping peptide #3 (human); test: labelled AK1967 on biotinylated peptide #3 captured on avidin plate, chemiluminescence
T15 peptide: Biotin-AFNFDQETVINPETGEQI
Protocol: as §1

[16] = target: T16, epitope mapping peptide #2 (human); test: labelled AK1967 on biotinylated peptide #2 captured on avidin plate, chemiluminescence
T16 peptide: Biotin-AFNFDQETVINPETGEQIQ
Protocol: as §1

[17] = target: T17, epitope mapping peptide #17 (human, not fully specified (C-terminus)); test: labelled AK1967 on biotinylated peptide #17 captured on avidin plate, chemiluminescence
T17 peptide: ETVINPETGEQIQSWYK(Biotin)
Protocol: as §1

B1: monoclonal anti-DPP3 antibody AK1967 (clone 1967 of SEQ ID No.: 2) (antibody, V domains shown)
VH: QVTLKESGPGILQPSQTLSLTCSFSGFSLSTSGMSVGWIRQPSGKGLEWLAHIWWNDNKSYNPALKSRLTISRDTSNNQVFLKIASVVTADTGTYFCARNYSYDYWGQGTTLTVSS
VL: DVVVTQTPLSLSVSLGDPASISCRSSRSLVHSIGSTYLHWYLQKPGQSPKLLIYKVSNRFSGVPDRFSGSGSGTDFTLKISRVEAEDLGVYFCSQSTHVPWTFGGGTKLEIK
notes: Murine monoclonal; A human IgG1 kappa backbone was used for chimerization and humanization; The Octet run captured 'AK1967' on anti-human Fc biosensors, so the format in that run is uncertain; also called Procizumab; PCZ
[1]
  binding result: binds
[2]
  binding result: no binding
[3]
  binding result: no binding
[4]
  binding result: no binding
[5]
  binding result: no binding
[6]
  binding result: no binding
[7]
  binding result: no binding
[8]
  binding result: no binding
[9]
  binding result: binds
[10]
  binding result: binds
[11]
  binding result: binds
[12]
  binding result: binds
[13]
  binding result: binds
[14]
  binding result: binds
[15]
  binding result: binds
[16]
  binding result: binds
[17]
  binding result: binds
